Data set [1] concerns brain and spinal cord of EAE guinea pigs. Put plainly: Chronic EAE: histology and blinded pathological scoring of brain and spinal cord sections (H-E, SCR). The data set is classed as in vivo, guinea pig. The conditions noted are these: versus saline; listed as N-[N-(3-pyridinesulfonyl)-L-3,3-dimethyl-4-thiaprolyl]-O-[1-methylpiperzain-4-yl. As for the experimental part: Animal Sacrifice and Histological Analysis. Untreated, chronic EAE animals (n=5) were sacrificed on day 40, as well as non-EAE controls (n=5). Following each 10-day treatment interval, 5 animals from each group were sacrificed (0.25 mL sodium pentobarbital), blood samples were collected for FACS analysis (see below), and the brain and spinal cord dissected and sectioned. Three spinal sections were used, corresponding to lumbar, thoracic and cervical regions of the cord. The brain was cut into five transverse sections. The first three proximal sections were combined in one block, and the last two distal sections in another. Tissues were fixed in 10% formalin and embedded in paraffin. […] sections were stained with hematoxylin-eosin (H-E) or solochrome-R-cyanlin (SCR) and evaluated by a blinded observer in each of four categories: (1) meningeal inflammation, (2) perivascular infiltration, (3) encephalitis or (4) myelitis and demyelination (Table 6). The combined pathological score represents the total score (out of a potential 20) from all 5 CNS sections in each animal.

For data set [2], the system named is spinal cord lesions of paralyzed EAE guinea pigs. Description: Example 2: spontaneous remyelination in chronic EAE (SCR, toluidine blue, EM, lesion area analysis, motor function). The data set is classed as in vivo, guinea pig.
The subject of data set [3] is infiltrating cells in spinal cord. Description: Chronic EAE: mean cell counts in spinal cord (H-E sections, 0.12 mm^2 fields). The conditions noted are these: listed as N-[N-(3-pyridinesulfonyl)-L-3,3-dimethyl-4-thiaprolyl]-O-[1-methylpiperzain-4-yl. Type of data set: in vivo, guinea pig. As to the method:
To quantify the abnormalities observed in the spinal cord, sections stained with H-E were divided into 12 representative pie-shaped areas. In each area, the number of cells within a 0.12 mm^2 field of view was counted using Sigma Scan Pro image analysis software (SPSS Inc.), and the combined mean number of cells in all 12 areas was calculated for the whole spinal cord (36 fields of view per animal). Note that as all cell nuclei were counted, the number of cells may include neurons and glial cells in addition to infiltrates.

In data set [4] the test system is EAE in female Hartley guinea pigs. The conditions noted are these: listed as N-[N-(3-pyridinesulfonyl)-L-3,3-dimethyl-4-thiaprolyl]-O-[1-methylpiperzain-4-yl.
The test system of the next data set is IL-2, IL-10, MCP-1 RNA. Description: Chronic EAE: quantitative RT-PCR of spinal cord. The conditions noted are these: 10 days after withdrawal; listed as N-[N-(3-pyridinesulfonyl)-L-3,3-dimethyl-4-thiaprolyl]-O-[1-methylpiperzain-4-yl. Type of data set: in vivo, guinea pig. As for the experimental part: Quantitative Reverse Transcription-PCR: IL-2, IL-10, MCP-1. RNA was isolated from 30 mg of frozen guinea pig spinal cord using the S.N.A.P.™ (simple nucleic acid preparation) total RNA Isolation Kit (Invitrogen) according to manufacturer's instructions, modified to include a second DNAse treatment step followed by an additional purification over the S.N.A.P. column.
Primer/probe sequences and concentrations for IL-2, IL-10, and MCP-1 are given in Table 7, as well as the standard RNA used for each gene. RT-PCR was carried out in triplicate using the ABI PRISM® 7700 Sequence Detection System. 50 μl reactions contained 10 to 800 ng of total RNA and primers and probes at the concentrations indicated above in reaction buffer consisting of 6.67% glycerol (Amresco); 5.5 mM MgCl; 300 μM DATP, dCTP, dGTP, and dUTP; 100 nM probe; 1.25 unit of AmpliTaq Gold® DNA Polymerase (Applied Biosystems); 1× TaqMan® Buffer A (TaqMan® PCR Core reagents kit, Applied Biosystems), 20 units of RNase Inhibitor (Roche); 1.25 unit of murine leukemia virus (MuLV) Reverse Transcriptase (Applied Biosystems). Reverse-transcription of RNA was carried out at 48° C. for 30 min., followed by a 10 min. denaturing step at 95° C. PCR was carried out by 40 thermo-cycles consisting of 95° C. for 15 seconds followed by 60° C. for 1 minute. Each plate included a standard curve using the standard RNA listed in Table 7 and two additional control samples: 1) a positive control RNA sample used on all plates, 2) a non-template control (NTC).
The correlation coefficients of the standard curves were greater than 0.990 for all data shown. The coefficients of variation for sample triplicates were less than 0.2. Since the RNA used for the standard curve is a heterogeneous mix of RNA containing a constant but unknown amount of the target message, the numbers calculated are relative.

The target of a further data set is α4 integrin (Homo sapiens, UniProt P05556+P13612). Put plainly: Inhibition of cell adhesion to VCAM. Type of data set: cell-based, human and guinea pig. The conditions noted are these: 100% serum; read-out: IC50 for inhibition of cell adhesion to high density VCAM-1 in the presence of 100% serum.
In data set [5] the target is β1 integrin (human) (human) (UniProt P05556).
Data set [6] shares this target. The source holds these as a separate data set.
Data set [7] has as its target α6 integrin (human) (human) (UniProt P23229).
The target of data set [8] is α4 integrin (human) (human) (UniProt P13612).
Data set [9] has the same target. This is another data set of the same source.
Data set [10] shares this target. The source holds these as a separate data set.
Data set [11] has the same target. This is another data set of the same source.
Data set [12] has the same target. The source holds these as a separate data set.
For another data set, the target named is Mac-1 (human) (human) (UniProt P11215).
Data set [13] addresses L-selectin (mouse) (mouse) (UniProt P18337).
In a further data set the target is CD45 (rat) (rat) (UniProt P04157).
Another data set has as its target Thy 1.1 (rat) (rat) (UniProt P01830).
A further data set has as its target CD2 (rat) (rat) (UniProt P08921).
In a further data set the target is CD4 (rat) (rat) (UniProt P05540).
In data set [14] the target is monocyte/T cell surface antigen (rat) (rat).
Data set [15] has as its target α4 integrin (mouse) (mouse) (UniProt Q00651).
Data set [16] has as its target β2 integrin (human) (human) (UniProt P05107).
Another data set concerns human lymphocytes. The conditions noted are these: cited from earlier work.
Data set [17] deals with α4 integrin (human) (human) (UniProt P13612). This is another data set of the same source.
The target in the next data set is T1, VLA-4 (Homo sapiens, UniProt P05556+P13612).
T1 construct: endogenous in cells; host or cells: Jurkat cells
The conditions noted are these: cited from earlier work.

The melting point is the temperature of the solid-liquid transition. By IC50 is commonly meant the midpoint of a concentration-inhibition curve.

`Cc1ccc(S(=O)(=O)N2CCC[C@H]2C(=O)N[C@@H](Cc2ccc(OC(=O)N3CCN(CCO)CC3)cc2)C(=O)OC(C)(C)C)cc1` had a melting point of 158 to 160 °C.

For `CC(C)OC(=O)[C@H](Cc1ccc(OC(=O)N2CCN(C)CC2)cc1)NC(=O)[C@H]1N(S(=O)(=O)c2cccnc2)CSC1(C)C` [Example 381, N-[N-(3-pyridinesulfonyl)-L-3,3-dimethyl-4-thiaprolyl]-O-[1-methylpiperazin-4-ylcarbonyl]-L-tyrosine isopropyl ester], in data set [1], the “spinal cord histology after 20 days of treatment (day 60)” value is “much smaller area of demyelination”; the “spinal cord histology after 40 days of treatment (day 80)” value was “almost no meningeal and perivascular inflammation”. Also, in data set [2] (20 days, listed as N-[N-(3-pyridinesulfonyl)-L-3,3-dimethyl-4-thiaprolyl]-O-[1-methylpiperzain-4-yl), the “SCR-stained spinal cord lesions after 20 days of treatment” value is “lesions with a diffuse blue stain covering the plaque”. In addition, the “SCR-stained spinal cord lesions after 40 days of treatment” value in [2] (40 days, listed as N-[N-(3-pyridinesulfonyl)-L-3,3-dimethyl-4-thiaprolyl]-O-[1-methylpiperzain-4-yl) is “majority of lesions showed clear myelin pallor”. Further, the “percentage of remyelination (mean percent of lesion area with myelin pallor)” value in data set [2] (after 20, 30 or 40 days of therapy) worked out at 50%. Besides, the “semithin and EM sections of lesions” value in [2] (day 30 of treatment, listed as N-[N-(3-pyridinesulfonyl)-L-3,3-dimethyl-4-thiaprolyl]-O-[1-methylpiperzain-4-yl) is “multiple layers of thin myelin wrappings around large diameter axons indicative of remyelination”. In addition, the “incidence of remyelination (lesions with myelin pallor) versus saline” value in [2] (time-dependent) was “increased the incidence of remyelination”. Also, the “cell number in spinal cord versus saline-treated animals” value in data set [3] (after 10, 20, 30 or 40 days, p<0.001 two-way ANOVA) is reported as “fewer cells”. Besides, the “mean cell count after removal of compound for 10 days versus continuous treatment” value in [3] (p<0.05) is “significantly increased”. Besides, the “mean clinical score day 70-80 after withdrawal (30 days treatment, 10 days off) versus continuous treatment” value in data set [4] (n=5, p<0.05 Mann Whitney) is listed as “significantly higher”. The escape from treatment entry in [4] (up to 40 days of treatment) is listed as “no escape from treatment”. In addition, in [4] (up to 40 days, 30 mg/kg 2x/day s.c., guinea pig, 30 mg/kg), the “adverse side effects during prolonged administration” value is “no adverse side effects”. Moreover, the “cytokine RNA after withdrawal of compound” value in the data set with IL-2, IL-10, MCP-1 RNA was “rose to levels comparable to those in saline-treated animals”. At α4 integrin, the IC50 lay within 1 to 10 nM.

AIIB2 (antibody): the Relative Binding to EAE Vessels (% of Control), human lymphocytes in data set [5] is 7 % of Control. Moreover, the Relative Binding to EAE Vessels (% of control) in data set [6] was 8 % of control.

As to GoH3 (antibody), the Relative Binding to EAE Vessels (% of control) in data set [7] was 88 % of control.

As for HP1/7 (antibody), the Relative Binding to EAE Vessels (% of control) in [8] is 338 % of control.

For HP2/1 (antibody), the Relative Binding to EAE Vessels (% of Control), rat lymphocytes in the data set with α4 integrin (rat) (rat) was 18 % of Control. In [9], the Relative Binding to EAE Vessels (% of Control), human lymphocytes is 0 % of Control. For the same molecule, the % Input Binding Jurkat to TNFα-stimulated rat brain EC clone in [10] was found to be 6 % input. The same molecule had a % Input Binding Ramos to VCAM-1 transfected L cells in [11] of 0 % input. Moreover, in data set [8], the Relative Binding to EAE Vessels (% of control) is 3 % of control. Moreover, the Jurkat binding to FN-coated plate (% inhibition) in data set [12] came to 47 % inhibition.

Regarding LM2/1 (antibody), in the data set with Mac-1 (human) (human), the Relative Binding to EAE Vessels (% of control) was 107 % of control.

For MEL-14 (antibody), the Relative Binding to EAE Vessels (% of Control), mouse lymphocytes in [13] was 92 % of Control.

For OX-1 (antibody), the Relative Binding to EAE Vessels (% of Control), rat lymphocytes in the data set with CD45 (rat) (rat) was 90 % of Control.

On to OX-7 (antibody), for which the Relative Binding to EAE Vessels (% of Control), rat lymphocytes with Thy 1.1 (rat) (rat) was 87 % of Control.

For OX-34 (antibody), the Relative Binding to EAE Vessels (% of Control), rat lymphocytes in the data set with CD2 (rat) (rat) was 100 % of Control.

Turning to OX-35 (antibody), the Relative Binding to EAE Vessels (% of Control), rat lymphocytes with CD4 (rat) (rat) is 107 % of Control.

OX-44 (antibody): the Relative Binding to EAE Vessels (% of Control), rat lymphocytes in data set [14] was 102 % of Control.

For the molecule OX-52 (antibody), in the data set with LFA-1 (rat) (rat), the Relative Binding to EAE Vessels (% of Control), rat lymphocytes is 87 % of Control.

Turning to P4G9 (antibody), in data set [8], the Relative Binding to EAE Vessels (% of control) is 151 % of control.

Turning to R1-2 (antibody), the Relative Binding to EAE Vessels (% of Control), mouse lymphocytes in [15] was 43 % of Control.

On to TS1/18 (antibody), for which the Relative Binding to EAE Vessels (% of control) in data set [16] was 98 % of control.

B1: TY21.6 (antibody, V domains shown)
VH: EVQLQQSGAELVKPGASVKLSCTASGFNIKDTYIHCVKQRPEQGLEWIGRIDPANGYTKYDPKFQGKATITADTSSNTAYLQLSSLTSEDTAVYFCAREGYYGNYGVYAMDYWGQGTSVTVSS
VL: DIQMTQSPSSLSASLGGKVTITCKTSQDINKYMAWYQHKPGKRPRLLIHYTSALQPGIPSRFSGSGSGRDYSFNISNLEPEDIATYYCLQYDNLWTFGGGTKLEIK
For B1, the “human lymphocyte binding to TNF-stimulated rat brain cell cultures” value with human lymphocytes is “inhibit human lymphocyte binding”. The % Input Binding Jurkat to TNFα-stimulated rat brain EC clone in data set [10] worked out at 8 % input. Further, the % Input Binding Ramos to VCAM-1 transfected L cells in data set [11] was found to be 1 % input. Moreover, the Binding of U937 cells to inflamed vessels in sections of EAE brain in data set [17] was 0. Further, the “binding affinity for VLA-4” value in the data set with VLA-4 is “about 10^9 M^−1”. The molecule also had a Jurkat binding to FN-coated plate (% inhibition) in data set [12] of 45 % inhibition.
